Drawing on US20190194350A1, this text covers EC50 (read off the curve) and EC50 for one molecule.

Test [1] concerns the target His-tagged extracellular domain of EGFR (aa 20-643) (UniProt P00533). The experiment in a line: ELISA, coated EGFR-His, detection with HRP anti-human Fc antibody; the legend paragraph 41 and paragraph 295 name Cetuximab as this control, the sheet prints hu225-IgG [panel EGFR-His]. On the technique in general: In an ELISA, binding on a coated surface is turned into a signal by an enzyme label.

For test [2] the target is unchanged. The experiment in a line: ELISA, coated EGFR-His.

B1: hu225-IgG (antibody, V domains shown)
VH: EVQLVESGGGLVQPGGSLRLSCAASGFSLTNYGVHWVRQAPGKGLEWLGVIWSGGNTDYNTPFTSRFTISRDNSKNTLYLQMNSLRAEDTAVYYCARALTYYDYEFAYWGQGTTVTVSS
VL: DIQLTQSPSFLSASVGDRVTITCRASQSIGTNIHWYQQKPGKAPKLLIKYASESISGVPSRFSGSGSGTEFTLTISSLQPEDFATYYCQQNNNWPTTFGAGTKLEIK
Regarding B1, the concentration for a half-maximal effect (EC50 (read off the curve)) in test [1] was 0.2 nM. The same molecule registered a 50% effective concentration (EC50) in test [2] of 0.2 nM.

In general, EC50 (read off the curve) refers to the midpoint of the concentration-response curve. Read a high EC50 (read off the curve) as weaker potency. By EC50 is commonly meant the midpoint of the concentration-response curve. Higher therefore signals lower potency in that assay.
